Experiments:
[1] = target: Trichomonas vaginalis riboside hydrolase (TvRH), His6 tag removed (Trichomonas vaginalis) (UniProt A2FTT0); test: SEC
[2] = substrate: NC(=O)c1ccc[n+]([C@@H]2O[C@H](CO)[C@@H](O)[C@H]2O)c1; test: purified protein; conditions: Ca2+ active site (modeled only); pH 6.5; 37.0 °C
[3] = substrate: Nc1ccn([C@@H]2O[C@H](CO)[C@@H](O)[C@H]2O)c(=O)n1; test: purified protein; conditions: Ca2+
[4] = substrate: O=[N+]([O-])c1ccc(O[C@@H]2O[C@H](CO)[C@@H](O)[C@H]2O)cc1; test: purified protein; conditions: Ca2+
[5] = substrate: O=c1[nH]c(=O)n([C@@H]2O[C@H](CO)[C@@H](O)[C@H]2O)cc1Br; test: purified protein; conditions: Ca2+
[6] = substrate: O=c1[nH]c(=O)n([C@@H]2O[C@H](CO)[C@@H](O)[C@H]2O)cc1Cl; test: purified protein; conditions: Ca2+
[7] = substrate: O=c1[nH]c(=O)n([C@@H]2O[C@H](CO)[C@@H](O)[C@H]2O)cc1F; test: purified protein; conditions: Ca2+
[8] = substrate: O=c1ccn([C@@H]2O[C@H](CO)[C@@H](O)[C@H]2O)c(=O)[nH]1; test: purified protein; conditions: Ca2+ active site (modeled only)

“Trichomonas vaginalis riboside hydrolase (TvRH), His6 tag removed (from UniProt A2FTT0 1-347) (enzyme)” was tested, and the stoichiometry N [1] was 4.

B1: TvRH (riboside hydrolase, TVAG_092730) (Trichomonas vaginalis G3) (protein)
chain: MSIKCALDCDPGHDDLAMIMLAVYSPKLDVQYISTTHGNQTVNKTYQNARRTLNLIKRADKIPVYRGYSKPLTRESVACPEIHGESGLGGVDWSEIDRTMPRNPALDILGYKDESELRPDDFFKHLHRLVSAAEDKFDIISTGSETNIAQYLLAYPEDAKKIRMTTMAGNFMIVGNIMPFAEFNVLIDPEAISNILQSGVDYTFAAPLDITHTVLVTEKVINDIKAATEPYSPKFTEMIIKLLFFFKDTYRDVFGFIDPPLHDPVAAFHLIAPEWFEHVRCHVDIETKGEYTYGCCCTNLILKKKDPTKIVKPDNATVCLKLKEGGHDAFWNQMITVWGEIAKEIGK
B1 was tested, and the Km [2] was 99.1 µM, the kcat [2] was 10.9 ± 0.24 s⁻¹ and the kcat/Km [2] was 110000 M⁻¹ s⁻¹. It also gave a Km [3] of 33 µM, a kcat [3] of 0.19 ± 0.003 s⁻¹ and a kcat/Km [3] of 5700 M⁻¹ s⁻¹. It also gave a Km [4] of 13 µM, a kcat [4] of 391 ± 2 s⁻¹ and a kcat/Km [4] of 3e+07 M⁻¹ s⁻¹. It also gave a Km [5] of 20 µM, a kcat [5] of 2.1 ± 0.1 s⁻¹ and a kcat/Km [5] of 100000 M⁻¹ s⁻¹. It also gave a Km [6] of 11 µM, a kcat [6] of 2.3 ± 0.1 s⁻¹ and a kcat/Km [6] of 210000 M⁻¹ s⁻¹. The Km [7] was 17 µM, the kcat [7] was 12.6 ± 0.6 s⁻¹ and the kcat/Km [7] was 770000 M⁻¹ s⁻¹. For the same molecule, the Km [8] was 39 µM, the kcat [8] was 9.3 ± 0.27 s⁻¹ and the kcat/Km [8] was 240000 M⁻¹ s⁻¹.
